Measured values taken from paper PMC12416549 (2024).
Positions count from the first letter of the chain named. Numbers in names are those of the source.

T1: TNFR1 (Homo sapiens, UniProt P19438)
T1 chain: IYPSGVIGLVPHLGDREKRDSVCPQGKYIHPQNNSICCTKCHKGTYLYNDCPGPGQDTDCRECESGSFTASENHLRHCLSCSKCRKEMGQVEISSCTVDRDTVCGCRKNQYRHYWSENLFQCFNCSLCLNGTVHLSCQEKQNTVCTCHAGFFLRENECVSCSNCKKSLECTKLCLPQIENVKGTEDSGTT

B1: E54R (designed binder)
chain: SMEEEVEKAAKEYEKKKKEAIEKHLEKLKAKDKEAAERFLKELEEAAKEYAKDRAKTMSEEEAKRRAKKYKEKVLLSELSEEEQKEIKEAEEKLVRTILKYVEEAAK
B2: K29L (designed binder)
chain: B1 chain with K29L, R54E
B3: E49S (designed binder)
chain: B1 chain with E49S, R54E
B4: A90D (designed binder)
chain: B1 chain with R54E, A90D
B5: L99K (designed binder)
chain: B1 chain with R54E, L99K
B6: A51N (designed binder)
chain: B1 chain with A51N, R54E
B7: A105I (designed binder)
chain: B1 chain with R54E, A105I
B8: A90W (designed binder)
chain: B1 chain with R54E, A90W
B9: E37F (designed binder)
chain: B1 chain with E37F, R54E
B10: K8T (designed binder)
chain: B1 chain with K8T, R54E
B11: E78P (designed binder)
chain: B1 chain with R54E, E78P
B12: E14N (designed binder)
chain: B1 chain with E14N, R54E
B13: A90K (designed binder)
chain: B1 chain with R54E, A90K
B14: I87T (designed binder)
chain: B1 chain with R54E, I87T
B15: A30Q (designed binder)
chain: B1 chain with A30Q, R54E
B16: A20S (designed binder)
chain: B1 chain with A20S, R54E
B17: I21D (designed binder)
chain: B1 chain with I21D, R54E
B18: E26R (designed binder)
chain: B1 chain with E26R, R54E
B19: Y101V (designed binder)
chain: B1 chain with R54E, Y101V
B20: E83K (designed binder)
chain: B1 chain with R54E, E83K
B21: V102D (designed binder)
chain: B1 chain with R54E, V102D
B22: K69H (designed binder)
chain: B1 chain with R54E, K69H
B23: S80N (designed binder)
chain: B1 chain with R54E, S80N
B24: K71L (designed binder)
chain: B1 chain with R54E, K71L
B25: E5F (designed binder)
chain: B1 chain with E5F, R54E
B26: E45T (designed binder)
chain: B1 chain with E45T, R54E
B27: K27Q (designed binder)
chain: B1 chain with K27Q, R54E
B28: E89K (designed binder)
chain: B1 chain with R54E, E89K
B29: A63D (designed binder)
chain: B1 chain with R54E, A63D
B30: E26I (designed binder)
chain: B1 chain with E26I, R54E
B31: A36M (designed binder)
chain: B1 chain with A36M, R54E
B32: I98E (designed binder)
chain: B1 chain with R54E, I98E
B33: I98R (designed binder)
chain: B1 chain with R54E, I98R
B34: M58W (designed binder)
chain: B1 chain with R54E, M58W
B35: T97L (designed binder)
chain: B1 chain with R54E, T97L
B36: K69M (designed binder)
chain: B1 chain with R54E, K69M
B37: E42V (designed binder)
chain: B1 chain with E42V, R54E
B38: L25Y (designed binder)
chain: B1 chain with L25Y, R54E
B39: K27R (designed binder)
chain: B1 chain with K27R, R54E
B40: K8Y (designed binder)
chain: B1 chain with K8Y, R54E
B41: K31E (designed binder)
chain: B1 chain with K31E, R54E
B42: E34K (designed binder)
chain: B1 chain with E34K, R54E
B43: K88I (designed binder)
chain: B1 chain with R54E, K88I
B44: I87P (designed binder)
chain: B1 chain with R54E, I87P
B45: E54D (designed binder)
chain: B1 chain with R54D
B46: L28S (designed binder)
chain: B1 chain with L28S, R54E
B47: E12N (designed binder)
chain: B1 chain with E12N, R54E
B48: K88A (designed binder)
chain: B1 chain with R54E, K88A
B49: K11V (designed binder)
chain: B1 chain with K11V, R54E
B50: E54L (designed binder)
chain: B1 chain with R54L
B51: K8H (designed binder)
chain: B1 chain with K8H, R54E
B52: A9E (designed binder)
chain: B1 chain with A9E, R54E
B53: Y50T (designed binder)
chain: B1 chain with Y50T, R54E
B54: E26G (designed binder)
chain: B1 chain with E26G, R54E
B55: A90F (designed binder)
chain: B1 chain with R54E, A90F

Target: T1, TNFR1
Assay: yeast display SC50

Row | Binder | apparent Kd (screen) [nM]
1 | B1 | 18.3
2 | B2 | 0.79
3 | B3 | 1.27
4 | B4 | 0.446
5 | B5 | 7.78
6 | B6 | 12.5
7 | B7 | 1.69
8 | B8 | 0.49
9 | B9 | 0.49
10 | B10 | 1.16
11 | B11 | 2.73
12 | B12 | 5.31
13 | B13 | 0.956
14 | B14 | 12.5
15 | B15 | 0.593
16 | B16 | 0.446
17 | B17 | 10.4
18 | B18 | 0.593
19 | B19 | 0.446
20 | B20 | 0.593
21 | B21 | 0.539
22 | B22 | 0.49
23 | B23 | 2.73
24 | B24 | 0.653
25 | B25 | 1.05
26 | B26 | 2.73
27 | B27 | 0.593
28 | B28 | 2.73

Row | Binder | apparent Kd (screen) [nM]
29 | B29 | 10.4
30 | B30 | 1.16
31 | B31 | 0.446
32 | B32 | 4.39
33 | B33 | 1.4
34 | B34 | 18.3
35 | B35 | 1.69
36 | B36 | 0.49
37 | B37 | 1.16
38 | B38 | 0.446
39 | B39 | 0.869
40 | B40 | 0.956
41 | B41 | 1.05
42 | B42 | 0.539
43 | B43 | 0.446
44 | B44 | 22.2
45 | B45 | 20.2
46 | B46 | 0.49
47 | B47 | 1.16
48 | B48 | 0.405
49 | B49 | 0.593
50 | B50 | 4.39
51 | B51 | 0.956
52 | B52 | 0.446
53 | B53 | 1.16
54 | B54 | 0.593
55 | B55 | 0.49
